The source of these data is US20230055408A1 (JIANGSU HENGRUI MEDICINE, published 2023).

Test [1] deals with T1, monkey CEA expressed on CHO cell surface (cynomolgus monkey).
T1 construct: also called cynoCEA-CHO; monkey CEA proteins on the cell surface
T1 chain: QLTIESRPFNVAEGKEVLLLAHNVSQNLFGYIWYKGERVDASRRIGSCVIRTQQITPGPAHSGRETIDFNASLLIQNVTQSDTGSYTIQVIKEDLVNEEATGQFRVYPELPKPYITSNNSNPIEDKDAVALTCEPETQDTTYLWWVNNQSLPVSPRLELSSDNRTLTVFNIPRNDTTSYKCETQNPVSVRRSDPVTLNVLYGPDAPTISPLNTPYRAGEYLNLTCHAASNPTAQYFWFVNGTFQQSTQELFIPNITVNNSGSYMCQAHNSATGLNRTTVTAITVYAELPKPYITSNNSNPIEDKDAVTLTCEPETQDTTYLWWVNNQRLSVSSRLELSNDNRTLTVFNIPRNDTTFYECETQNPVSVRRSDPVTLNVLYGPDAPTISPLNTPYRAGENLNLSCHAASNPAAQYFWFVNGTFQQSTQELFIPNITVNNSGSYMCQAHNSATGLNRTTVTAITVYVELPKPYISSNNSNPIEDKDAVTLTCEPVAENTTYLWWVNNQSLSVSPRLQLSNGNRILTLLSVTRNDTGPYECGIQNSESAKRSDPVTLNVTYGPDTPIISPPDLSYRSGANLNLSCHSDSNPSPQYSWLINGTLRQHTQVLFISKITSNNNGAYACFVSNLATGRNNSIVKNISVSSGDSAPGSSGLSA
Nature of the test: FACS, cynoCEA-CHO cells. The procedure:
(§1) In order to detect the binding of the antibody to the CEA protein on the cell surface, the binding activity of the antibody was determined by FACS using cells expressing CEA on the cell surface. Cells were harvested and centrifuged at 400 g at 4° C. for 5 min. Pre-cooled PBS containing FBS at final concentration 10% was added, and the mixture was centrifuged at 400 g at 4° C. for 5 min; the procedures were repeated twice. The cells were seeded into a 96-well plate at 10⁵ cells/well, and 100 μL of gradient diluted antibody solution was added to each well. The plate was incubated at 4° C. for 60 min and centrifuged, and the supernatant was removed. 250 μL of pre-cooled PBS containing FBS at final concentration 10% was added to each well to resuspend the cells, and the suspension was centrifuged at 400 g at 4° C. for 5 min, followed by the removal of the supernatant; the procedures were repeated twice. 50 μL of 1:200 diluted secondary antibody Alexa Fluor@488 goat anti-human IgG (H+L) (Lifetechologies, Cat #A11013) was added. […] 250 μL of pre-cooled PBS containing FBS at final concentration 10% was added to each cell to resuspend the cells, and the suspension was centrifuged at 400 g at 4° C. for 5 min; the procedures were repeated twice. 100 μL of pre-cooled PBS was added to each well to resuspend the cells. The plate was analyzed by a flow cytometer (BD, FACSverse) for fluorescence signal values.

Test [2] has as its target T2, human CEA protein on the cell surface (human, UniProt P06731 35-685).
T2 construct: whole, on cells; also called CEACAM-5; CD66e
T2 sequence (looked up): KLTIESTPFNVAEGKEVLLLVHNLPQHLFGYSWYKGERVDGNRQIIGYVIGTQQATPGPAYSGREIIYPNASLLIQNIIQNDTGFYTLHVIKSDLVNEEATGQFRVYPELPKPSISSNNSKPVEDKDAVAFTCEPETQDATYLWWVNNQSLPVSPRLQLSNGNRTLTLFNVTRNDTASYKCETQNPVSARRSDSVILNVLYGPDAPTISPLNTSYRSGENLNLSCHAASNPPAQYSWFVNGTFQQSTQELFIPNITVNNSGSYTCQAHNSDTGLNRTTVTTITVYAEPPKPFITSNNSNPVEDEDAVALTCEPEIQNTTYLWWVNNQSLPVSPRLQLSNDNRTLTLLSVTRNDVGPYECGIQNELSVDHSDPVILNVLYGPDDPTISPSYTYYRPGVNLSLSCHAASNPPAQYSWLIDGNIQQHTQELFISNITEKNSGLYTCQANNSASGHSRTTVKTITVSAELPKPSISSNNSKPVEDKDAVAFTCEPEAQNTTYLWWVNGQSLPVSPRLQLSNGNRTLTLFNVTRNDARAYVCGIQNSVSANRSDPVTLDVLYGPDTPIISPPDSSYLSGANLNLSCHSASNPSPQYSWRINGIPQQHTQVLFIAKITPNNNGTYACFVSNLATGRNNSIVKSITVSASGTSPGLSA
Nature of the test: FACS, MKN45 cells. The procedure: as §1
A general note: In flow cytometry, cells or beads pass a laser one at a time.

Where a chain is given by its changes, count along the chain named.

The term EC50 denotes the concentration giving half of the maximal effect.

B1: Hu67-7 (antibody, V domains shown)
VH: EVQLVQSGAEVKKPGESLKISCKGSGYSFTDYHMNWVRQMPGKGLEWMGDINPDIGGTSYNQNFKGQVTISADKSISTAYLQWSSLKASDTAMYYCARWDFDSFANWGQGTLVTVSS
VL: EIVMTQSPATLSVSPGERATLSCRASESVSIIGTNLIHWYQQKPGQAPRLLIYHASNLETGIPARFSGSGSGTEFTLTISSLQSEDFAVYYCLQSRKIPYTFGGGTKVEIKR
With B1, the EC50 in test [1] was 7.2 nM; in test [2] it was 3.88 nM.

B2: Hu67-12 (antibody, V domains shown)
VH: B1 VH with R38K, Q67K, A72V
VL: B1 VL
Regarding B2, the EC50 in test [1] was found to be 5.31 nM; in test [2], 3.2 nM.

B3: Hu67-11 (antibody, human IgG1, kappa, V domains shown)
VH: B1 VH with R38K, Q67K, A72V
VL: DIVMTQSPDSLAVSLGERATINCRASESVSIIGTNLIHWYQQKPGQPPKLLIYHASNLETGVPDRFSGSGSGTDFTLTISSLQAEDVAVYYCLQSRKIPYTFGGGTKVEIKR
Regarding B3, the figures for the EC50 in test [1] and in test [2] were 4.66 nM and 2.26 nM, respectively.

B4: Hu103-3 (antibody, human IgG1, lambda)
heavy: not shown
light: ELVLTQSPSASASLGASVKLTCTLSSQHSTYTIEWYQQQPEKGPRYVMELKKDGSHSTGDGIPDRFSGSSSGAERYLTISSLQSEDEADYYCGVGNTIKEQFVYVFGGGTKLTVLGQPKANPTVTLFPPSSEELQANKATLVCLISDFYPGAVTVAWKADGSPVKAGVETTKPSKQSNNKYAASSYLSLTPEQWKSHRSYSCQVTHEGSTVEKTVAPTECS
Regarding B4, the EC50 in test [1] was 1.18 nM; in test [2], 1.91 nM.

B5: Hu103-12 (antibody, human IgG1, lambda)
heavy: not shown
light: B4 light with L4V
Take B5: the EC50 was 1.08 nM in test [1] and 2.38 nM in test [2].

B6: Hu103-13 (antibody, human IgG1, lambda)
heavy: not shown
light: B4 light with G43P, Y91I
With B6, the EC50 in test [1] was determined as 1.01 nM; in test [2], 2.53 nM.

B7: Hu103-9 (antibody, human IgG1, lambda)
heavy: not shown
light: B4 light with Y36H, V47L
As for B7, the values for the EC50 in test [1] and in test [2] were 1.61 nM and 2.95 nM, respectively.

B8: Hu103-5 (antibody, human IgG1, lambda)
heavy: not shown
light: B4 light with G43P, Y91I
Regarding B8, the EC50 worked out at 1.47 nM in test [1] and 2.38 nM in test [2].

B9: Hu103-14 (antibody, human IgG1, lambda)
heavy: not shown
light: B4 light with L4V, G43P, Y91I
For B9, the EC50 in test [1] was 1.37 nM; in test [2], 2.41 nM.

B10: Hu103-7 (antibody, human IgG1, lambda, V domains shown)
VH: EVQLVQSGSELKKPGASVKVSCKASGYTFTTYGVIWVRQAPGQGLEWMGWINTYSGVPTYADDFKGRFVFSLDTSVSTAYLQISSLKAEDTAVYYCARKKTLTTVTPWFAYWGQGTLVTVSS
VL: ELVVTQSPSASASLGASVKLTCTLSSQHSTYTIEWYQQQPEKPPRYVMELKKDGSHSTGDGIPDRFSGSSSGADRYLTISSLQSEDEADYICGVGNTIKEQFVYVFGGGTKLTVLG
As to B10, the EC50 in test [1] stood at 1.62 nM; in test [2] it was 2.2 nM.

B11: Hu103-6 (antibody, human IgG1, lambda)
heavy: not shown
light: B4 light with L4V, G43P, Y91I
For the molecule B11, the EC50 in test [1] was 1.56 nM; in test [2], 1.27 nM.

B12: Hu103-19 (antibody, human IgG1, lambda)
heavy: not shown
light: B4 light
Consider B12, for which the figures for the EC50 in test [1] and in test [2] were 0.96 nM and 2.42 nM, respectively.

B13: Hu103-23 (antibody, human IgG1, lambda)
heavy: not shown
light: B4 light with L4V, G43P, E74D, Y91I
With B13, the figures for the EC50 in test [1] and in test [2] were 0.93 nM and 2.9 nM, respectively.

B14: Hu103-22 (antibody, human IgG1, lambda)
heavy: not shown
light: B4 light with L4V, G43P, Y91I
Take B14: the values for the EC50 in test [1] and in test [2] were 1.02 nM and 3.64 nM, respectively.

B15: Hu103-4 (antibody, human IgG1, lambda)
heavy: not shown
light: B4 light with L4V
On to B15, for which the concentration for a half-maximal effect (EC50) was found to be 1.32 nM in test [1] and 2.62 nM in test [2].

B16: Hu103-10 (antibody, human IgG1, lambda)
heavy: not shown
light: B4 light with V47L
As for B16, the EC50 came out at 1 nM in test [1] and 2.23 nM in test [2].

B17: Hu103-18 (antibody, human IgG1, lambda)
heavy: not shown
light: B4 light with V47L
For B17, the figures for the EC50 in test [1] and in test [2] were 0.89 nM and 2.75 nM, respectively.

B18: Hu103-20 (antibody, human IgG1, lambda)
heavy: not shown
light: B4 light with L4V
Turning to B18, the results for the EC50 in test [1] and in test [2] were 0.98 nM and 2.19 nM, respectively.

B19: Hu103-15 (antibody, human IgG1, lambda)
heavy: not shown
light: B4 light with L4V, G43P, E74D, Y91I
On to B19, for which the EC50 is 1.36 nM in test [1] and 2.13 nM in test [2].

B20: Hu103-17 (antibody, human IgG1, lambda)
heavy: not shown
light: B4 light with Y36H, V47L
B20: the EC50 in test [1] was found to be 1.52 nM; in test [2], 2.92 nM.

B21: Hu103-21 (antibody, human IgG1, lambda)
heavy: not shown
light: B4 light with G43P, Y91I
With B21, the EC50 in test [1] was 1.17 nM; in test [2], 1.34 nM.

B22: Hu47-10 (antibody, human IgG1, kappa, V domains shown)
VH: EVQLVQSGSELKKPGASVKVSCKASGYTFTTYGMSWVKQAPGQGLKWMGWINTYSGVPTYADDFKGRFVFSLDTSVSTAYLQISSLKAEDTAVYYCARRGNYGRWDFDVWGQGTTVTVSS
VL: EIVLTQSPDFQSVTPKEKVTITCSVSSTISSSNLHWYQQKPDQSPKPLIYGTSNLASGVPSRFSGSGSGTDYTLTINSLEAEDAATYYCQQWSIYPLTFGQGTKLEIKR
As to B22, the results for the EC50 in test [1] and in test [2] were 0.27 nM and 2.27 nM, respectively.

B23: Hu47-6 (antibody, human IgG1, kappa, V domains shown)
VH: B22 VH with K38R
VL: B22 VL
Take B23: the EC50 in test [1] amounted to 0.3 nM; in test [2], 2.5 nM.
